In the supplement of paper PMC9732359:
± gives the uncertainty stated by the source.

Assay: protein stability index of a GFP-peptide fusion (yeast GPS) (PSI 1-4); higher = more stable; sorted into four equal gates, so the index is relative within each strain
Outline: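 The protein stability index combines read frequencies across sorting gates, each weighted by its gate number and then summed. To obtain those frequencies, a pooled yeast library of GFP fusions to tiled 17-residue yeast protein peptides, on a plasmid also expressing Cherry, was grown to mid-log phase in leucine-free medium. The cells were sorted into four equal gates by GFP/Cherry ratio before plasmid amplification by PCR and Illumina sequencing.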

Sequence | protein stability index (doa10∆) | protein stability index (pdr5∆) | protein stability index (san1∆) | protein stability index (ubr1∆)
NFTSPTAVVNNAAPANV [SWI1] | 2.86 ± 0.057 | 2.77 ± 0.08 | 2.69 ± 0.088 | 2.91 ± 0.053
NGALDPKMGVSSSSLEC [RPO31] | 3.21 ± 0.097 | 3.41 ± 0.049 | 3.22 ± 0.067 | 3.21 ± 0.047
NGCSGADVKGVCTEAGM [RPT6] | 3.15 ± 0.18 | 3.7 ± 0.16 | 3.25 ± 0.11 | 3.1 ± 0.11
NGDLTVSLCAKNMGLVP [SSN2] | 2.22 ± 0.081 | 2.23 ± 0.079 | 2.13 ± 0.091 | 2.17 ± 0.087
NGEEIVGFWKDDGDDED [MTR3] | 2.52 ± 0.11 | 2.66 ± 0.074 | 2.89 ± 0.091 | 3.45 ± 0.087
NGITLALIDAGISMFDY [SKI6] | 1.38 ± 0.068 | 1.51 ± 0.042 | 1.59 ± 0.14 | 1.56 ± 0.038
NGKDNNNESNKNNNGDE [MED2] | 3.12 ± 0.053 | 3.17 ± 0.042 | 3.23 ± 0.034 | 3.15 ± 0.035
NGKIWVKCEELSNTLAC [RRP40] | 3.29 ± 0.12 | 3.24 ± 0.13 | 3.26 ± 0.067 | 3.6 ± 0.16
NGLLNEISRLKTSLSIK [SMC2] | 3.1 ± 0.21 | 3.25 ± 0.11 | 3.12 ± 0.11 | 3.11 ± 0.15
NGNLTSNQLISNYAASN [SWI1] | 3.13 ± 0.12 | 2.89 ± 0.1 | 2.98 ± 0.11 | 3.1 ± 0.055
NGVNVQIDQLNRLLPNL [GRR1] | 2.86 ± 0.044 | 3.07 ± 0.05 | 2.88 ± 0.039 | 2.91 ± 0.04
NHFSLSYKDSGLWGFST [COR1] | 2.96 ± 0.077 | 3.23 ± 0.073 | 3.15 ± 0.046 | 3.02 ± 0.054
NHWRQNKGRAVYINPSG [BRR2] | 2.97 ± 0.12 | 2.78 ± 0.089 | 2.85 ± 0.074 | 3.16 ± 0.1
NIATQQNMQQSLQQMQH [GAL11] | 2.75 ± 0.076 | 2.92 ± 0.091 | 2.68 ± 0.17 | 2.86 ± 0.069
NIDTITDAMTESQPKQT [MCD1] | 2.71 ± 0.14 | 3.02 ± 0.11 | 3 ± 0.076 | 3.32 ± 0.087
NIKLLNNRMGSYDCTGV [POP1] | 2.85 ± 0.078 | 2.8 ± 0.059 | 2.83 ± 0.071 | 3 ± 0.042
NIKSSISNGNLATGPNL [YOR098C/NUP1] | 2.77 ± 0.09 | 3.18 ± 0.084 | 2.99 ± 0.11 | 2.89 ± 0.065
NILWRIADKTTYDKETI [SIR4] | 3.2 ± 0.12 | 3.16 ± 0.084 | 2.98 ± 0.1 | 3.17 ± 0.052
NIMSASGGLFGNQQQQL [YGL172W/NUP49] | 3.25 ± 0.067 | 3.12 ± 0.086 | 3.29 ± 0.1 | 3.2 ± 0.042
NINAKMETRINILLRER [YIL149C/MLP2] | 2.98 ± 0.18 | 3.35 ± 0.12 | 2.61 ± 0.12 | 3.15 ± 0.1
NIPWDVPGMPAPIKKII [PRP8] | 2.75 ± 0.3 | 2.91 ± 0.19 | 2.8 ± 0.28 | 3.05 ± 0.2
NISKSRAKPVTNSSILL [RRP6] | 2.14 ± 0.063 | 2.23 ± 0.065 | 2.23 ± 0.1 | 2.38 ± 0.097
NISRDFQSYIVSSLPGS [COR1] | 1.63 ± 0.093 | 2.14 ± 0.095 | 2.08 ± 0.098 | 1.85 ± 0.048
NIVNDFTPEEEAAIRRE [SKP1] | 2.28 ± 0.14 | 2.73 ± 0.079 | 3.08 ± 0.13 | 3.02 ± 0.086
NKEMHTDLGKDIPFFPS [SSN2] | 2.34 ± 0.062 | 2.01 ± 0.066 | 2.52 ± 0.066 | 2.76 ± 0.055
NKIDQSLQYIERQQDEL [YJL041W/NSP1] | 3.18 ± 0.15 | 3.19 ± 0.12 | 3.25 ± 0.096 | 2.93 ± 0.061

Sequence | protein stability index (doa10∆) | protein stability index (pdr5∆) | protein stability index (san1∆) | protein stability index (ubr1∆)
NKLSSILQNEHDYWNKI [SRB4] | 2.37 ± 0.069 | 2.41 ± 0.05 | 2.25 ± 0.099 | 2.47 ± 0.043
NKSISDEITEDMFEMSD [SSN2] | 3.03 ± 0.075 | 3.1 ± 0.075 | 2.82 ± 0.058 | 3.1 ± 0.05
NKYQYSLKQYAGNLITT [SRP68] | 3.23 ± 0.23 | 1.44 ± 0.14 | 1.7 ± 0.11 | 1.54 ± 0.06
NLCGDISLEALNFYITN [SIR3] | 2.55 ± 0.064 | 2.73 ± 0.059 | 2.6 ± 0.053 | 2.74 ± 0.032
NLDFDPRDVIKGKDFEI [FAS1] | 3.47 ± 0.25 | 2.9 ± 0.29 | 3.32 ± 0.11 | 3.46 ± 0.1
NLDNLQKVSQLESADKQ [POP4] | 3.06 ± 0.1 | 2.59 ± 0.1 | 3.01 ± 0.092 | 2.86 ± 0.18
NLEFDSTNHPDYDVSKK [SRP14] | 3.15 ± 0.092 | 3.25 ± 0.12 | 3.2 ± 0.048 | 3.15 ± 0.065
NLENMSIQDTSTVAKNV [YCG1] | 3.01 ± 0.052 | 3.12 ± 0.051 | 3.1 ± 0.04 | 3.21 ± 0.041
NLFGATANANKPAFSFG [YJL041W/NSP1] | 3.05 ± 0.096 | 3.18 ± 0.081 | 3.14 ± 0.074 | 3.12 ± 0.057
NLKQANNVAYGKKRFRV [SMC4] | 2.41 ± 0.11 | 2.62 ± 0.077 | 2.09 ± 0.095 | 2.31 ± 0.054
NLPILKNHFRKHWQERV [RPL13A] | 2.33 ± 0.085 | 2.83 ± 0.073 | 2.31 ± 0.1 | 1.87 ± 0.089
NLRHERNSLETKLTTCK [YIL149C/MLP2] | 2.83 ± 0.13 | 2.79 ± 0.14 | 2.93 ± 0.12 | 3.04 ± 0.077
NMFELAQQLVGVYKRDN [SMC4] | 1.08 ± 0.11 | 1.61 ± 0.12 | 1.61 ± 0.16 | 1.37 ± 0.13
NMFGDYSNEPFNTNFDD [SNF6] | 3.11 ± 0.088 | 2.78 ± 0.059 | 3.06 ± 0.069 | 2.85 ± 0.045
NMGMNNMNNGGKELDSL [PGD1] | 3.54 ± 0.28 | 3.64 ± 0.24 | 3.24 ± 0.11 | 3.24 ± 0.082
NMMEHWDYLQLTVAMYI [RPO31] | 2.08 ± 0.061 | 2.2 ± 0.063 | 2.4 ± 0.15 | 1.85 ± 0.063
NMVSLRGRNDTLERVHL [GRR1] | 2.85 ± 0.086 | 3.22 ± 0.14 | 2.39 ± 0.17 | 2.73 ± 0.096
NNDKREIQEELERFNKR [SMC1] | 2.49 ± 0.24 | 3.52 ± 0.13 | 3.4 ± 0.062 | 3.27 ± 0.068
NNDQKRQQAYKTAQTLD [YJL041W/NSP1] | 3.14 ± 0.071 | 3.17 ± 0.063 | 3.33 ± 0.053 | 3.23 ± 0.047
NNHNDSNRLHPPDIHPN [GRR1] | 2.76 ± 0.046 | 2.82 ± 0.044 | 2.8 ± 0.039 | 2.77 ± 0.035
NNMLYPREDKENNRLLF [RPB9] | 3.13 ± 0.13 | 3.43 ± 0.16 | 2.78 ± 0.1 | 3.25 ± 0.22
NNNDNDANRNANNIVNI [GRR1] | 2.94 ± 0.052 | 3 ± 0.05 | 2.9 ± 0.036 | 3.04 ± 0.045
NNNDNNNSNTVASSTNF [SWI1] | 2.92 ± 0.032 | 3.089 ± 0.03 | 2.94 ± 0.031 | 3.021 ± 0.028
NNNETSKPAFSFGAKSD [YJL041W/NSP1] | 2.93 ± 0.11 | 3.1 ± 0.083 | 3.15 ± 0.067 | 3.61 ± 0.29
NNNNNNNNNSTRPQMPS [GRR1] | 2.891 ± 0.019 | 3.041 ± 0.017 | 3.062 ± 0.018 | 3.027 ± 0.018
NNNPLQQQSSQNTVPNV [GAL11] | 2.65 ± 0.046 | 2.86 ± 0.041 | 3 ± 0.033 | 2.82 ± 0.03
